From paper PMC2275666 (The EMBO Journal, 2008)
Several values for one entry are separate records, joined by “and”; a condition that tells them apart may be missing. Equal entries are not always repeated. Where two headings read alike, the source gives them in different places.

T1: hTFIIH p62 PH-D (pleckstrin homology domain of the p62 subunit of human TFIIH) (human, UniProt P32780 1-108)
T1 sequence: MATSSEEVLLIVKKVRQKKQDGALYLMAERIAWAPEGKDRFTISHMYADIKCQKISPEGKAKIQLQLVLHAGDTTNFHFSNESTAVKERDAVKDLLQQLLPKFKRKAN

B1: 6H–hTFIIEα wild type (full-length hTFIIEα) (natural protein)
chain: MADPDVLTEVPAALKRLAKYVIRGFYGIEHALALDILIRNSCVKEEDMLELLKFDRKQLRSVLNNLKGDKFIKCRMRVETAADGKTTRHNYYFINYRTLVNVVKYKLDHMRRRIETDERDSTNRASFKCPVCSSTFTDLEANQLFDPMTGTFRCTFCHTEVEEDESAMPKKDARTLLARFNEQIEPIYALLRETEDVNLAYEILEPEPTEIPALKQSKDHAATTAGAASLAGGHHREAWATKGPSYEDLYTQNVVINMDDQEDLHRASLEGKSAKERPIWLRESTVQGAYGSEDMKEGGIDMDAFQEREEGHAGPDDNEEVMRALLIHEKKTSSAMAGSVGAAAPVTAANGSDSESETSESDDDSPPRPAAVAVHKREEDEEEDDEFEEVADDPIVMVAGRPFSYSEVSQRPELVAQMTPEEKEAYIAMGQRMFEDLFE

Legend:
[1] = target: B1; test: pull-down
[2] = target: T1, hTFIIH p62 PH-D (pleckstrin homology …); test: NMR titration
[3] = target: full-length GST–p62(1−548) (human, UniProt P32780 1-548); test: pull-down
[4] = target: B1; test: pull-down; remark: listed apart in the source

| Kd [2] | binding result [4] | Binder | also measured |
| --- | --- | --- | --- |
|  |  | FLAG-tagged hTFIIH p62 PH-D, wild type (domain or fragment) MATSSEEVLLIVKKVRQKKQDGALYLMAERIAWAPEGKDRFTISHMYADIKCQKISPEGKAKIQLQLVLHAGDTTNFHFSNESTAVKERDAVKDLLQQLLPKFKRKAN | binding result [1]: binds |
| 400 ± 43 nM |  | hTFIIEα(351−439) (longer construct with STDE and acidic regions, NMR titration) (domain or fragment) GSDSESETSESDDDSPPRPAAVAVHKREEDEEEDDEFEEVADDPIVMVAGRPFSYSEVSQRPELVAQMTPEEKEAYIAMGQRMFEDLFE |  |
|  |  | B1 | binding result [3]: binds |
|  | binds | GST–p62(1−238) (domain or fragment) not shown |  |
|  | binds | GST–p62(1−333) (domain or fragment) not shown |  |
|  | binds | GST–p62(1−108) (GST-tagged p62 PH-D) (domain or fragment) MATSSEEVLLIVKKVRQKKQDGALYLMAERIAWAPEGKDRFTISHMYADIKCQKISPEGKAKIQLQLVLHAGDTTNFHFSNESTAVKERDAVKDLLQQLLPKFKRKAN |  |
| 376 nM and 237 nM |  | hTFIIEα AC-D (C-terminal acidic domain of the human TFIIEα subunit, residues 378–439) (domain or fragment) EEDEEEDDEFEEVADDPIVMVAGRPFSYSEVSQRPELVAQMTPEEKEAYIAMGQRMFEDLFE |  |
| 2120 ± 192 nM |  | EEEDDEFEEVADDP [hTFIIEα AC-D(381−394) peptide (N-terminal tail only)] |  |
